Reference: patent US20260285954

Biological target: Aβ oligomers (Aβ42) (human), P05067
Experiment: SPR
Details: remark: other sources report otherwise

Chain of Aβ oligomers (Aβ42) (human), P05067 (P05067 672-713): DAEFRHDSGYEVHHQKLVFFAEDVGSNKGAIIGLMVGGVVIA

- Kd: 0.847 nM
B1: 3F (protein)
chain: MAEVQLLESGGGLVQPGGSLRLSCAASGFTFSSYAMSWVRQAPGKGLEWVSGISNLGLTTGYADSVKGRFTISRDNSKNTLYLQMNSLRAEDTAVYYCAKTTSRFDYWGQGTLVTVSSGGGGSGGGGSGGGGSTDIQMTQSPSSLSASVGDRVTITCRASQSISSYLNWYQQKPGKAPKLLIYKASYLQSGVPSRFSGSGSGTDFTLTISSLQPEDFATYYCQNSAVRPVTFGQGTKVEIKR
